From US20210275657A1 (published 2021)

Assays:
[1] = target: T1, GATA3 neoORF (frameshift mutation of GATA3), common region peptide on HLA-A*02:01 (human); assay: IL-2 release (Meso Scale Discovery) by TCR-transduced Jurkat cells, 10:1 with HEK 293T cells (endogenous HLA-A02:01) loaded overnight with titrated GATA3 peptide; FIG. 44; full-length, on cells
[2] = target: T1, GATA3 neoORF (frameshift mutation of …); assay: Summary statement of the same IL-2 peptide titration with TCR-transduced Jurkat cells and peptide loaded HEK 293T cells; full-length, on cells

EC50 of peptide [1]: 37.9 nM | EC50 of peptide [2]: < 40 nM
B1: GATA3 specific TCR clonotype 1 (TCR, V domains shown)
Valpha: SQKIEQNSEALNIQEGKTATLTCNYTNYSPAYLQWYRQDPGRGPVFLLLIRENEKEKRKERLKVTFDTTLKQSLFHITASQPADSATYLCALDIYGNNRLAFGKGNQVVVIP
Vbeta: DVKVTQSSRYLVKRTGEKVFLECVQDMDHENMFWYRQDPGLGLRLIYFSYDVKMKEKGDIPEGYSVSREKKERFSLILESASTNQTSMYLCASSLDFVLAGSYSYNEQFFGPGTRLTVL
